One substance from paper PMC7540724 can be followed below.

For this experiment, the target named is Thermus thermophilus RodA (FLAG-3C-RodA) (Thermus thermophilus) (UniProt Q5SIX3). The experiment is described as follows: crystal structure.

“Thermus thermophilus PBP2 (PBP2-3C-PrtC) (enzyme)”: the stoichiometry N (PBP2 per RodA) turned out to be 1.
